The text below walks through data of US20100041597A1, “PEPTIDES TARGETED TO PROTEIN KINASE C ISOFORMS AND USES THEREOF” (priority 2005, published 2010).

Test [1] concerns the target PKC-ε (purified isoform) (Homo sapiens (Human)) (UniProt Q02156). The test is described as follows: competitive ELISA on purified PKC-ε vs anti-PKC-ε Ab; PRE 50 µM. (In general: ELISA stands for enzyme-linked immunosorbent assay.)
Test [2] has the same target. The test is described as follows: competitive ELISA on purified PKC-ε vs anti-PKC-ε Ab; PRE 100 µM.
Test [3] shares this target. The test is described as follows: competitive ELISA on purified PKC-ε vs anti-PKC-ε Ab; PRE 200 µM.
Test [4] addresses PKC-βI (purified isoform) (Homo sapiens (Human)) (UniProt P05771). The test is described as follows: competitive ELISA on purified PKC-βI vs anti-PKC-βI Ab; PRE 50 µM.
For test [5] the target is unchanged. The test is described as follows: competitive ELISA on purified PKC-βI vs anti-PKC-βI Ab; PRE 100 µM.
For test [6] the target is unchanged. The test is described as follows: competitive ELISA on purified PKC-βI vs anti-PKC-βI Ab; PRE 200 µM.
The target of test [7] is PKC-βII (purified isoform) (Homo sapiens (Human)) (UniProt P05771). The test is described as follows: competitive ELISA on purified PKC-βII vs anti-PKC-βII Ab; PRE 50 µM.
Chain of PKC-βII (purified isoform) (Homo sapiens (Human)) (P05771 other isoform, or with tags, fused parts or gaps limits assumed): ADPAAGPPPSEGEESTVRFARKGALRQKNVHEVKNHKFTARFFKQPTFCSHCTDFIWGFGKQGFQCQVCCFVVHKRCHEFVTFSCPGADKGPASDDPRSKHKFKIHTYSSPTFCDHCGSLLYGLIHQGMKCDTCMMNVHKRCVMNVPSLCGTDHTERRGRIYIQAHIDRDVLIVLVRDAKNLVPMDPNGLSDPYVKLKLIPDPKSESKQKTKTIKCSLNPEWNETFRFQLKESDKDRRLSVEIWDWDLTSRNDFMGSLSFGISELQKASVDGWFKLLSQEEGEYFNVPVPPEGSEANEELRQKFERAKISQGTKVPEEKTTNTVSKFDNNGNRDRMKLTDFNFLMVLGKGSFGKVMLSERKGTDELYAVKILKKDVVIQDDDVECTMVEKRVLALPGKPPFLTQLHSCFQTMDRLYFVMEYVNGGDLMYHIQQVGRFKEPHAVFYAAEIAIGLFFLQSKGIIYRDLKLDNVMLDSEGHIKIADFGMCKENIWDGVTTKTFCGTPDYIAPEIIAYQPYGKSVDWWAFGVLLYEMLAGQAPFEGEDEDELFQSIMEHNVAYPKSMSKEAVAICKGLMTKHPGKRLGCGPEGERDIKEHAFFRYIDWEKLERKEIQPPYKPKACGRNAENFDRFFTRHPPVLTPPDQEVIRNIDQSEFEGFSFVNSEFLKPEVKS
Test [8] shares this target. The test is described as follows: competitive ELISA on purified PKC-βII vs anti-PKC-βII Ab; PRE 100 µM.
The target is the same in test [9]. The test is described as follows: competitive ELISA on purified PKC-βII vs anti-PKC-βII Ab; PRE 200 µM.
Test [10] deals with PKC-βI (purified isoform) (Homo sapiens (Human)), P05771. The test is described as follows: competitive ELISA on purified PKC-βI vs anti-PKC-βI Ab; PRE 50 µM. The following applies: remark: other sources report otherwise.
Chain of PKC-βI (purified isoform) (Homo sapiens (Human)), P05771 (P05771 2-671 limits assumed): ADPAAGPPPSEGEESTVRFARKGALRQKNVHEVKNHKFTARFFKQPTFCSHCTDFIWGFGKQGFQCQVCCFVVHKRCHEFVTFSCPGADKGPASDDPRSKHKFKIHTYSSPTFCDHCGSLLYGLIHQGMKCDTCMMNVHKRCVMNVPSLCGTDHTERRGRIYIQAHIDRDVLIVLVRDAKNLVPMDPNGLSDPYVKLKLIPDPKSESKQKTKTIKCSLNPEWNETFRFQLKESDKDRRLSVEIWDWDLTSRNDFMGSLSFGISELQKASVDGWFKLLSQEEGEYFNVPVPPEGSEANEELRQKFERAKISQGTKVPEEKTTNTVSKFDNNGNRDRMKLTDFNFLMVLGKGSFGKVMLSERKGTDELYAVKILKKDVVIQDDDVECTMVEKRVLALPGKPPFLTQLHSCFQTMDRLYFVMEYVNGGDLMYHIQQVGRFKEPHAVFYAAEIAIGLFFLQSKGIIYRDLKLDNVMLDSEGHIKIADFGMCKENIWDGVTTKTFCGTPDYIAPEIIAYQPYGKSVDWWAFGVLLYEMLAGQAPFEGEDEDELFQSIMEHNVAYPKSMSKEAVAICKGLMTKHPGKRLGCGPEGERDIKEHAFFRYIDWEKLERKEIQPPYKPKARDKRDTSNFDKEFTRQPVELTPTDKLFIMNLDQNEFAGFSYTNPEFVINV
Test [11] shares this target. The test is described as follows: competitive ELISA on purified PKC-βI vs anti-PKC-βI Ab; PRE 100 µM. Particulars: remark: other sources report otherwise.
For test [12] the target is unchanged. The test is described as follows: competitive ELISA on purified PKC-βI vs anti-PKC-βI Ab; PRE 200 µM. The following applies: remark: other sources report otherwise.
For test [13], the target named is PKC-δ (purified isoform) (Homo sapiens (Human)) (UniProt Q05655). The test is described as follows: competitive ELISA on purified PKC-δ vs anti-PKC-δ Ab; PRE 50 µM.
Chain of PKC-δ (purified isoform) (Homo sapiens (Human)) (Q05655 whole entry, stated change not applied, canonical isoform): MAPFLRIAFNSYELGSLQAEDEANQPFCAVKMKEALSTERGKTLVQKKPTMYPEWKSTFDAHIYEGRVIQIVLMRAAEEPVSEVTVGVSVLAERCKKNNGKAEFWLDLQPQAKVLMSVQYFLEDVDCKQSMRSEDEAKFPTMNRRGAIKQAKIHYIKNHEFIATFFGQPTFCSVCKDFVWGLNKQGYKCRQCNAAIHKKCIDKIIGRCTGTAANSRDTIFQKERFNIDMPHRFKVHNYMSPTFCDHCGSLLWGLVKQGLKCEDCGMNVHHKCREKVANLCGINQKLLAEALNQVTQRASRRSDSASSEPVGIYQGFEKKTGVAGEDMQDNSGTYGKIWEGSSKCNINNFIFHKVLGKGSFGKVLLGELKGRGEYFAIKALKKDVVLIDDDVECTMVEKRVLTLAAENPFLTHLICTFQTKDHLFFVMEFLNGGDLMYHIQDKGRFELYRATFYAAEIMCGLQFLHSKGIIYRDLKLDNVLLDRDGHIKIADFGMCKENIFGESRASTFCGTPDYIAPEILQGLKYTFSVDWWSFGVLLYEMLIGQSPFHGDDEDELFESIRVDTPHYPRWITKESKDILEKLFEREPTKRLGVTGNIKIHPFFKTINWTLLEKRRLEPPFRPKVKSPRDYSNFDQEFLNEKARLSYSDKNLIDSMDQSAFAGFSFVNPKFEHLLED
For test [14] the target is unchanged. The test is described as follows: competitive ELISA on purified PKC-δ vs anti-PKC-δ Ab; PRE 100 µM.
Test [15] shares this target. The test is described as follows: competitive ELISA on purified PKC-δ vs anti-PKC-δ Ab; PRE 200 µM.

Chain of PKC-ε (purified isoform) (Homo sapiens (Human)) (Q02156 whole entry, canonical isoform): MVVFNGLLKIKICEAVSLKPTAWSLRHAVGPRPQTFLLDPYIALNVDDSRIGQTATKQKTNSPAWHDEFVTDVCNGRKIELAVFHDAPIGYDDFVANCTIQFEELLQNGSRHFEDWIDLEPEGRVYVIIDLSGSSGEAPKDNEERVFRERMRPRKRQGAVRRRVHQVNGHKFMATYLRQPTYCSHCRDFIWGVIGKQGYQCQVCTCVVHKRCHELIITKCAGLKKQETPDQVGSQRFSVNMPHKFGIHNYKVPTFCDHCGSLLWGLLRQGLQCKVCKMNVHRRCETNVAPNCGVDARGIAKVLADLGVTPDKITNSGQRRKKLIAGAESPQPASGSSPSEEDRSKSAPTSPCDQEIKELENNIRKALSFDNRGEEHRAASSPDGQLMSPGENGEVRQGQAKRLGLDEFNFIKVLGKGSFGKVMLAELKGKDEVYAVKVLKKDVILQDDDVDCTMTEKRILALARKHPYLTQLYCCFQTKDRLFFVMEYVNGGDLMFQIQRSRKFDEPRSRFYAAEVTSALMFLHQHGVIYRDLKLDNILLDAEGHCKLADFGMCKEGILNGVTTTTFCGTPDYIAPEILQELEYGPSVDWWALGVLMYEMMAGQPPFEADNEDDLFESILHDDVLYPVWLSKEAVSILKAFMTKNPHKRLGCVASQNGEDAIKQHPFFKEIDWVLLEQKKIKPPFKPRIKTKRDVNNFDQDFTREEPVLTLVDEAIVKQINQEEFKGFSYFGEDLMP
Chain of PKC-βI (purified isoform) (Homo sapiens (Human)) (P05771 2-671 limits assumed): as the sequence (P05771 2-671 limits assumed) above

B1: PRE 1 (peptide)
peptide: RRKKGGKDFVVKR
With B1, the binding capacity (%) came to 19.8% in [1], 5.47% in test [2] and 0.83% in test [3].

B2: PRE 5 (peptide)
peptide: Ac-AKGIQEVKGGKDAQNLIGISI-NH2
B2: the binding capacity (%) in [4], in [5] and in test [6] was 0% throughout.

B3: PRE 7 (peptide)
peptide: Ac-ISIGILQNADK-NH2
Turning to B3, the results for the binding capacity (%) in [7], in test [8] and in [9] were 5.42%, 11.1% and 2.59%, respectively.

B4: PRE 11 (peptide)
peptide: Ac-RDAQNLIGISI-NH2
B4: the binding capacity (%) in [4] was 9.86%; in test [5], 14.2%; in [6], 12.5%; in test [7], 7.14%; in test [8], 11%; in test [9], 6.4%.

B5: PRE 8 (peptide)
peptide: ILEDKGGDAQNLIGISI
Turning to B5, the binding capacity (%) in test [10], in [11] and in test [12] was 0% throughout.

B6: PRE 10 (peptide)
peptide: Ac-ISIGILNQADK-NH2
Turning to B6, the binding capacity (%) in test [13] worked out at 0%; in test [14] it was 0%; in test [15], 9.47%; in test [4], 3.77%; in test [5], 4.35%; in test [6] it was 0%.
